Experimental data reported in patent US20260209387A1, “SINGLE-DOMAIN ANTIBODY FOR INHIBITION OF NEUTROPHIL ELASTASE ACTIVITY” (UNIVERSITE DE LIEGE, priority 2023, published 2026).
One block for each molecule: values may come before it.

Experiments:
[1] = biological target: T1, proteolytic activity of ciliary dyskinesia patient sputum (Homo sapiens, UniProt P08246); assay: Sputum proteolytic activity inhibition, ciliary dyskinesia sputum; assay type: biochemical; details: 10 mg sputum
T1 construct: Sputa from patients with cystic fibrosis, COPD or ciliary diskenisia above 18 years old were collected; from tissue; host or cells: expectorated sputum of patients with cystic fibrosis, COPD or ciliary dyskinesia
T1 sequence (P08246 30-267): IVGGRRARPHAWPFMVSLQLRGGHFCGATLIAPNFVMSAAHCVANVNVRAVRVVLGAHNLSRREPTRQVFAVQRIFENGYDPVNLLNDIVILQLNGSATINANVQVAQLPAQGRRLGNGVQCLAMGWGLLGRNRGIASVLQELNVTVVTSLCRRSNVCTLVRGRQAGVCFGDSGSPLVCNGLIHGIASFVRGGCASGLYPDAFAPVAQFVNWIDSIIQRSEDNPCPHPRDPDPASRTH
Procedure: (§1) 2.2.2 Evaluation of the proteolytic activity inhibition in CF, COPD and ciliary diskenisia sputa. […] Sputa collection procedures were evaluated by the local ethic committee (comité d'Ethique Hospitalo-Facultaire des Cliniques universitaires Saint-Luc) and approved under the Belgian registration number B4032021000071.
(§2) Sputum proteolytic activity was assessed by following with a spectrophotometer the absorbance at 410 nm of suc-Ala-Ala-Pro-Val-pNA degradation, the chromogenic hNE substrate. Sputa were classified as mucoid, muco-purulent or purulent (Serisier et al., 2009, Respir Res, 10 (1): 63. doi: 10.1186/1465-9921-10-6). According to the experiment, 10 to 20 mg of sputum were weighted in a 96-well plate. ISVDs were then added to the sputum samples and pre-incubated at 37° C. during different periods of time. The hNE substrate was diluted to a concentration of 1 mM in a tris buffer (0.1M tris, 0.5M NaCl, 0.01% Sodium azide (NaN3), pH 7.5) and 50 μl of this solution were added to the wells. The substrate degradation was followed during 50 min. […] Slopes were then calculated from the regression line drawn from the absorbance measurements and were expressed as a percentage of the sputum proteolytic activity without ISVDs.

[2] = Aggregates detection by Nanoparticle Tracking Analysis; assay type: physicochemical; details: after nebulization; for average counted particles per frame (NTA): 0.25 mg/ml
Procedure: 2.3.5 Aggregates Detection. Protein aggregates were visualized by Nanoparticle Tracking Analysis (NTA) (ZetaView, 220 Twin Laser, Particle Metrix, Ammersee, Germany), a technique used for measuring single particle size and concentration. NbE201, NbE201-PEG10 and NbE201-PEG40 solutions (0.25 mg/ml) were analysed before and after nebulization. 11 positions were analysed for which following parameters were used: • Laser wavelength: 488 nm • Scatter, no fluorescence • Sensitivity: 80 • Shutter: 100

[3] = biological target: T2, proteolytic activity of COPD patient sputum (Homo sapiens, UniProt P08246); assay: Sputum proteolytic activity inhibition, COPD sputum; assay type: biochemical; details: 15 mg sputum, COPD patient in exacerbation
T2 construct: Sputa from patients with cystic fibrosis, COPD or ciliary diskenisia above 18 years old were collected; from tissue; host or cells: expectorated sputum of patients with cystic fibrosis, COPD or ciliary dyskinesia
T2 sequence (P08246 30-267): T1 sequence (P08246 30-267)
Procedure: as §1, §2

[4] = biological target: T3, proteolytic (elastase) activity of cystic fibrosis patient sputa (Homo sapiens, UniProt P08246); assay: Sputum proteolytic activity inhibition, cystic fibrosis sputa; assay type: biochemical
T3 construct: Sputa from patients with cystic fibrosis, COPD or ciliary diskenisia above 18 years old were collected; from tissue; host or cells: expectorated sputum of patients with cystic fibrosis, COPD or ciliary dyskinesia
T3 sequence (P08246 30-267): T1 sequence (P08246 30-267)
Procedure: as §1, §2

[5] = biological target: T4, porcine pancreatic elastase (pPE) (Sus scrofa, UniProt P00772); assay: BLI binding to other serine proteases: pPE; details: 50 nM protease
T4 construct: purchased Sigma
T4 sequence (P00772 27-266): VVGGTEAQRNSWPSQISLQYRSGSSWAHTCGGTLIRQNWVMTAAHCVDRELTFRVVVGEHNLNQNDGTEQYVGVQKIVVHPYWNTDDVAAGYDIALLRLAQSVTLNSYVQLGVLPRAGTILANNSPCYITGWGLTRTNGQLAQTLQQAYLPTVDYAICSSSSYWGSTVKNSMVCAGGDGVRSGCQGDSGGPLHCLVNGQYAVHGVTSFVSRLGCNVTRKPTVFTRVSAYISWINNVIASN
Procedure: (§3) The specificity of NbE201 for hNE was also investigated by BLI. Biotinylated NbE201 (10 μg/mL) was immobilized on streptavidin biosensors (SA, Sartorius) following provider's indications. The biosensors were then immersed in a 50 nM solution of a serine protease. The proteases tested were human cathepsin G (hCG), human proteinase 3 (hPR3), mouse pancreatic elastase (mPE), mouse neutrophil elastase (mNE) and porcine pancreatic elastase (pPE). hNE was used a positive control. The association and dissociation were measured for 70 s and 320 s respectively, in kinetic buffer (KB, Sartorius). The experiments were carried out at 30° C. in 384-wells black-bottom microplates in polypropylene (Greiner Bio-One, Belgium) and with orbital agitation (1000 rpm).

[6] = biological target: T5, human proteinase 3 (hPR3) (Homo sapiens, UniProt P24158); assay: BLI binding to other serine proteases: hPR3; details: 50 nM protease
T5 construct: purchased EPC (Elastin Products Company)
T5 sequence (P24158 28-248): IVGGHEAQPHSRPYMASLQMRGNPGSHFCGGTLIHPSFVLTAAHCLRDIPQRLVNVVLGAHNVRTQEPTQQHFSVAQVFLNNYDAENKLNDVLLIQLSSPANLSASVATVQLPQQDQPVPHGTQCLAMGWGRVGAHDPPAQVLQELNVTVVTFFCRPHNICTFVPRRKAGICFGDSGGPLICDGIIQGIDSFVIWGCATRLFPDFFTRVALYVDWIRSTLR
Procedure: as §3

hNE [7] = biological target: T6, hNE (Homo sapiens, UniProt P08246); assay: hNE inhibition, hydrolysis of elastin (Elastin-CongoRed); assay type: biochemical
T6 construct: purchased Elastin Products Company (EPC)
T6 sequence (P08246 30-247): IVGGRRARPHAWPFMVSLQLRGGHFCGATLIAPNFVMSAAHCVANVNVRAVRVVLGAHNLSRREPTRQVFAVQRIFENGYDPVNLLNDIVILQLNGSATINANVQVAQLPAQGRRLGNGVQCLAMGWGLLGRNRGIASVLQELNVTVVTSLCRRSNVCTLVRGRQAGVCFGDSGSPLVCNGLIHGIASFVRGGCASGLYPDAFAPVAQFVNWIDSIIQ
Procedure: 1.6.2. Inhibition of the hydrolysis of elastin, a natural substrate of hNE. […] The samples were incubated for 16 hours at 37° C. with orbital shaking (900 rpm). The samples were then centrifuged at 90′000 g for 30 minutes at 4° C. to separate the insoluble Elastin from the digested and soluble molecule fragments. The soluble fraction was transferred into a 384-wells clear plate and the absorbance of Congo-red was measured at 495 nm in a SpectraMax M2e Microplates Reader (Molecular Devices, California, USA). The absorbance of the samples at different inhibitor: hNE molar ratios was compared to that measured in the absence of inhibitor, to determine the residual hNE activity. A sample of Elastin-Congo red without elastase was used as blank.

hNE [8] = biological target: T6, hNE; assay: hNE inhibition, hydrolysis of chromogenic substrate N-Succinyl-Ala-Ala-Ala-paraNitroAnilide; assay type: biochemical; details: hNE vs mNE
Procedure: Inhibition of the hydrolysis of a chromogenic substrate. […] Briefly, hNE (Elastin products company, EPC, United States) was resuspended at 1 mg·mL^−1 in 50 mM sodium acetate buffer pH 5 containing 100 mM NaCl and stored at 4° C. The substrate Succinyl-Ala-Ala-Ala-paraNitroAnilide was dissolved at 1 mM in 0.1 M Tris pH 7.5 with NaCl 0.5 M and NaN3 0.01% (% w/v) and stored at 4° C. 230 μl of substrate (1 mM) were mixed with 10 μl of Bovine Serum Albumin 9 μM (BSA, Sigma-Aldrich, Germany) and incubated 20 min at 25° C. in a clear flat bottom 96-well plate (Greiner Bio-One, Belgium). […] The absorbance at 410 nm was measured every min for 60 minutes in a SpectraMax M2e Microplates Reader (Molecular Devices, California, USA). The initial velocity determined in the presence of the ISVD at different Nb: hNE ratios was compared to that measured in the absence of the ISVD, to determine the residual activity. […]
The absorbance at 410 nm was measured every min for 60 minutes. The initial velocity determined in the presence of the inhibitor at different inhibitor: hNE ratios was compared to that measured in the absence of the inhibitor, to determine the residual activity. […] The hNE activity was monitored at 410 nm for 10 minutes using the spectrophotometer Specord 50 Plus (Analytik Jena) and data were collected with the WinAspectPlus software. […]

sputum proteolytic activity inhibition at time 0, compared with NbE201 ([4]; exposure time 0): No significant difference
B1: NbE201-PEG40: NbE201-Cter conjugated via C-terminal cysteine to branched 40 kDa PEG-maleimide (conjugate)
VHH: QVQLQESGGGLVQAGGSLRLSCVVPGRTISLYRMGWFRQAPGKEREFVAGINWSGDMTDYVDSVKGRFTISRDNAKNTVYLEMNSLKPEDTAIYYCTADPKLLPLADSSYGYWGQGTQVTVSSSPSTPPTPSPSTPPC
inhibitory capacity in ciliary dyskinesia sputum [1]: No apparent differences in inhibitory capacity | average counted particles per frame (NTA) [2]: far below that threshold | inhibitory capacity in COPD sputum [3]: No apparent differences in inhibitory capacity

binding to pPE by BLI [5]: does not bind to the other proteases | binding to hPR3 by BLI [6]: does not bind to the other proteases | inhibition of hNE activity, elastin hydrolysis (hNE [7]; [inhibitor]:[hNE] ratio 15): 80% | inhibitory activity to hNE relative to mNE (hNE [8]): about 10 times
B2: NbE201: anti-hNE ISVD (VHH/nanobody) from immunized lama, amino acid sequence SEQ ID NO: 4 (protein)
VHH: QVQLQESGGGLVQAGGSLRLSCVVPGRTISLYRMGWFRQAPGKEREFVAGINWSGDMTDYVDSVKGRFTISRDNAKNTVYLEMNSLKPEDTAIYYCTADPKLLPLADSSYGYWGQGTQVTVSS
inhibitory capacity in ciliary dyskinesia sputum [1]: No apparent differences in inhibitory capacity | average counted particles per frame (NTA) [2]: 228 | size of counted particles, percentile 10 [2]: 22.3±12 nm | size of counted particles, percentile 50 [2]: 138±8 nm | size of counted particles, percentile 90 [2]: 342.8±26 nm | inhibitory capacity in COPD sputum [3]: No apparent differences in inhibitory capacity | hNE residual activity, elastin hydrolysis (hNE [7]; [inhibitor]:[hNE] = 50): almost zero | inhibition of proteolytic activity in sputum samples ex vivo ([4]; cystic fibrosis sputa): able to inhibit the proteolytic activity in sputum samples ex vivo | sputum inhibition capacity over time ([4]; exposure 0 to 24 h): a loss of inhibitory capacity over time was observed
